How the values were obtained:
Assay type in all cases: cell-based
[1] = system: primary human bone marrow pluripotent stem cells
Description: EPO-R signaling stimulates the differentiation of bone marrow stem cells into proliferating red blood cell presursors. This assay measured the ability of test peptides to stimulate the proliferation and differentiation of red blood cell precursors from primary human bone marrow pluripotent stem cells. Test peptides were added to cultures of human bone marrow cells, and the cells are incubated for 16 days. Thereafter, the number of red blood cell colonies were counted. The concentration of test peptide at which the number of formed colonies is 90% of maximum, relative to that observed with EPO, was recorded as the EC90.

[2] = biological target: T1, human EPO-R (Homo sapiens, UniProt P19235); assay: Reporter assay (fos promoter-driven luciferase); details: murine pre-B-cell line expressing human EPO-R with luciferase reporter; 4 hr incubation; half-maximal relative to EPO
T1 construct: expressed in transfected cells; host or cells: murine pre-B-cell line
T1 sequence (P19235 25-508): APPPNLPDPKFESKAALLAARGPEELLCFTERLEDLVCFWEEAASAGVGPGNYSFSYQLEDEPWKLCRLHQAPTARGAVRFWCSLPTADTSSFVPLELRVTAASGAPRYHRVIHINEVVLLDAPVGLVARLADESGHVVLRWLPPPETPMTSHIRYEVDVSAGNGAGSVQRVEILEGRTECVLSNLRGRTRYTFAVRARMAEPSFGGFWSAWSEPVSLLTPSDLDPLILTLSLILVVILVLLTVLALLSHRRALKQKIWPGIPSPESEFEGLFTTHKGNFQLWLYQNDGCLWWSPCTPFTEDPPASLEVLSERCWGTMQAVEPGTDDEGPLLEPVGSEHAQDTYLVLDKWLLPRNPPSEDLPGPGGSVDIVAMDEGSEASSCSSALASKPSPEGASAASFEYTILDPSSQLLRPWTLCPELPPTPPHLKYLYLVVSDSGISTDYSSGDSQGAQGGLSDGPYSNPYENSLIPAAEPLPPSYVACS
From the text: This assay was based upon a murine pre-B-cell line transfected to express human EPO-R and further transfected with a fos promoter-driven luciferase reporter gene construct. Upon exposure to EPO or another EPO-R agonist, such cells respond by synthesizing luciferase. Luciferase causes the emission of light upon addition of its substrate luciferin. Thus, the level of EPO-R activation in such cells may be quantitated via measurement of luciferase activity.
The activity of a test peptide was measured by adding serial dilutions of the test peptide to cells, which were then incubated for 4 hr. After incubation, luciferin substrate was added to the cells, and light emission was measured. The concentration of test peptide that results in a half-maximal emission of light, relative to that observed with EPO, was recorded as the EC50.

[3] = biological target: T1, human EPO-R; assay: Proliferation assay (MTT); details: murine pre-B-cell line expressing human EPO-R, 48 hours incubation, half-maximal relative to EPO
Description: This assay was based upon a murine pre-B-cell line transfected to express human EPO-R. Proliferation of this cell line is dependent on EPO-R activation. The degree of cell proliferation was quantitated using MTT, where the signal in the MTT assay is proportional to the number of viable cells. The activity of a test peptide was measured by adding serial dilutions of the test peptide to cells, which were then incubated for 48 hours. After incubation, MTT was added to the cells, and absorbance was measured. The concentration of test peptide that results in a half-maximal absorbance, relative to that observed with EPO, was recorded as the EC50.

EC90 [1] [nM] | Compound | EC50 [2] [nM] | EC50 [3] [nM]
0.026 | CC[C@H](C)[C@@H]1NC(=O)[C@@H]2CCCN2C(=O)CNC(=O)[C@H](CCSC)NC(=O)[C@H](Cc2c[nH]cn2)NC(=O)[C@@H](NC(=O)[C@H](C)NC(=O)[C@H](Cc2ccc(O)cc2)NC(=O)[C@H](CC(C)C)NC(=O)CNC(=O)CNC(C)=O)CSSC[C@@H](C(=O)N[C@@H](CCC(N)=O)C(=O)N2CCC[C@H]2C(=O)N[C@@H](CC(C)C)C(=O)N[C@@H](CCCNC(=N)N)C(=O)N(C)CC(=O)N[C@@H](CCCCNC(=O)CN(CC(=O)NCCCC[C@H](NC(=O)CN(C)C(=O)[C@H](CCCNC(=N)N)NC(=O)[C@H](CC(C)C)NC(=O)[C@@H]2CCCN2C(=O)[C@H](CCC(N)=O)NC(=O)[C@@H]2CSSC[C@H](NC(=O)[C@H](C)NC(=O)[C@H](Cc3ccc(O)cc3)NC(=O)[C@H](CC(C)C)NC(=O)CNC(=O)CNC(C)=O)C(=O)N[C@@H](Cc3c[nH]cn3)C(=O)N[C@@H](CCSC)C(=O)NCC(=O)N3CCC[C@H]3C(=O)N[C@@H]([C@@H](C)CC)C(=O)N[C@@H]([C@@H](C)O)C(=O)N[C@@H](Cc3cccc4ccccc34)C(=O)N[C@@H](C(C)C)C(=O)N2)C(N)=O)C(=O)CCCC(=O)N(CCN)CCN)C(N)=O)NC(=O)[C@H](C(C)C)NC(=O)[C@H](Cc2cccc3ccccc23)NC(=O)[C@H]([C@@H](C)O)NC1=O [Example 8 peptide (non-PEGylated)] | – | –
– | Compound V: As Example 10 but peptide monomer Ac-GGLYACHYGPIT(Nal)VCQPLR(MeG)K, SEQ ID NO: 23 (GGLYACHYGPITXVCQPLRXK; not fully specified; conjugate chemistry not built) | 0.69 | 0.44

— patent US8106154B2, “Nitrogen-based linkers for attaching modifying groups to polypeptides and other macromolecules” (Affymax, Inc., priority 2007, dated 2012)
